# Measured values published in the supplement of paper PMC7877785.
# ± gives the uncertainty stated by the source.
# Assay: self-splicing fitness, log relative to wild type (ln ratio); higher = more splicing; Tetrahymena group I intron in knt gene, E. coli kanamycin selection, DiMSum; sequences stand for … in CUCUCU…GGAGGGAAAAGUUAUCAGGCAUGCACCUGGUAGCUAGUCUUUAAACCAAUAGAUUGCAUCGGUUUAAAAGGCAAGACCGUCAAAUUGCGGGAAAGGGGUCAACAGCCGUUCAGUACCAAGUCUCAGGGGAAACUUUGAGAUGGCCUUGCAAAGGGUAUGGUAAUAAGCUGACGGACAUGGUCCUAACCACGCAGCCAAGUCCUAAGUCAACAGAUCUUCUGUUGAUAUGGAUGCAGUUCACAGACUAAAUGUCGGUCGGGGAAGAUGUAUUCUUCUCAUAAGAUAUAGUCGGACCUCUCCUUAAUGGGAGCUAGCGGAUGAAGUGAUGCAACACUGGAGCCGCUGGGAACUAAUUUGUAUGCGAAAGUAUAUUGAUUAGUUUUGGAGUACUCGUGGUCG
# Outline: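 DiMSum derived fitness as the error-weighted combination of fold changes across replicates, kanamycin versus no kanamycin, normalised to wild type. E. coli BL21(DE3) held the library, which randomised all eight P1ex-region intron nucleotides within the knt kanamycin-resistance gene on pET-22b(+). Six replicate transformations grew overnight at 37°C or 30°C on LB agar with or without 25 μg/mL kanamycin, also containing 100 μg/mL carbenicillin, 50 μM IPTG and 0.2% rhamnose, and pooled colonies were amplicon-sequenced on an Illumina HiSeq 2500.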
Sequence,self-splicing fitness (ln) (37 °C),self-splicing fitness (ln) (30 °C)
AUGUAGCAAUAUUACGUCGC,-2.35 ± 0.46,
AUUAAGCAAUAUUACGACGC,0.175 ± 0.14,-0.389 ± 0.11
AUUAAGCAAUAUUACGAGCC,-1.69 ± 0.28,
AUUAAGCAAUAUUACGAUAU,-0.415 ± 0.096,-1.2 ± 0.081
AUUAAGCAAUAUUACGAUCU,-0.0178 ± 0.16,0.226 ± 0.12
AUUAAGCAAUAUUACGCAAG,-1.27 ± 0.16,-1.32 ± 0.14
AUUAAGCAAUAUUACGCAGC,-2.72 ± 0.39,-3.06 ± 0.22
AUUAAGCAAUAUUACGCCAG,-1.51 ± 0.22,-2.09 ± 0.15
AUUAAGCAAUAUUACGCCGA,0.0906 ± 0.26,-1.23 ± 0.26
AUUAAGCAAUAUUACGCCGU,-0.369 ± 0.14,-0.62 ± 0.1
AUUAAGCAAUAUUACGGAGU,-0.962 ± 0.15,-1.69 ± 0.14
AUUAAGCAAUAUUACGGCAA,0.438 ± 0.15,-0.363 ± 0.12
AUUAAGCAAUAUUACGGCAG,0.0222 ± 0.13,-1 ± 0.11
AUUAAGCAAUAUUACGGCGC,0.103 ± 0.17,-0.47 ± 0.15
AUUAAGCAAUAUUACGGGAC,-0.882 ± 0.17,-3.35 ± 0.22
AUUAAGCAAUAUUACGGGCA,-0.507 ± 0.12,-0.791 ± 0.12
AUUAAGCAAUAUUACGUACA,-0.1 ± 0.13,-1.2 ± 0.1
AUUAAGCAAUAUUACGUAGC,-1.84 ± 0.22,-4.67 ± 0.45
AUUAAGCAAUAUUACGUAUG,-1.47 ± 0.21,-2.74 ± 0.25
AUUAAGCAAUAUUACGUAUU,-1.85 ± 0.16,-2.15 ± 0.13

Sequence,self-splicing fitness (ln) (37 °C),self-splicing fitness (ln) (30 °C)
AUUAAGCAAUAUUACGUCCC,0.486 ± 0.23,-0.338 ± 0.18
AUUAAGCAAUAUUACGUCUU,-0.387 ± 0.11,-0.854 ± 0.091
AUUAAGCAAUAUUACGUGCG,0.0786 ± 0.13,-0.862 ± 0.091
AUUAAGCAAUAUUACGUGUA,-1.66 ± 0.13,-2.57 ± 0.14
AUUAAGCAAUAUUACGUUGC,-3.01 ± 0.37,-3.29 ± 0.23
AUUAAGCAAUAUUACGUUGG,-2.23 ± 0.28,-3.38 ± 0.28
AUUCAGCAAUAUUACGAAAC,-0.231 ± 0.1,-1.17 ± 0.061
AUUCAGCAAUAUUACGAACA,-0.341 ± 0.11,-0.36 ± 0.099
AUUCAGCAAUAUUACGAAUA,-1.08 ± 0.17,-2.49 ± 0.23
AUUCAGCAAUAUUACGAUGA,-0.36 ± 0.15,-0.652 ± 0.14
AUUCAGCAAUAUUACGAUGG,-0.688 ± 0.15,-2.57 ± 0.16
AUUCAGCAAUAUUACGAUGU,0.209 ± 0.099,0.173 ± 0.082
AUUCAGCAAUAUUACGCAUU,-0.427 ± 0.095,-0.534 ± 0.076
AUUCAGCAAUAUUACGCCCG,,-1.85 ± 0.34
AUUCAGCAAUAUUACGCGCG,0.873 ± 0.15,-0.817 ± 0.12
AUUCAGCAAUAUUACGCGGA,-0.735 ± 0.14,-1.73 ± 0.19
AUUCAGCAAUAUUACGCUAG,-0.152 ± 0.14,-1.56 ± 0.13
AUUCAGCAAUAUUACGGCGC,-0.346 ± 0.13,-0.389 ± 0.099
AUUCAGCAAUAUUACGGGAU,-2.32 ± 0.2,-4.6 ± 0.27
